# Experiment: yeast display, Sf9 membrane polyspecificity reagent, FACS + sequencing; frameworks hold sequencing errors
# Summary of the method: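 Synthetic nanobody libraries on Saccharomyces cerevisiae BJ5465 were galactose-induced for 36–48 hours, stained 1 hour at 4 °C with 10% biotinylated, detergent-solubilized Sf9 membrane reagent and enriched on streptavidin microbeads. FACS then separated cells into low and high (top ~1%) gates by anti-HA (expression) and streptavidin (reagent binding) fluorescence. Genes were colony-PCR amplified, MiSeq 2 × 250 sequenced and CDR-length filtered. A clone's polyreactivity label is that of its gate of origin.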
row,Sequence,polyreactivity (PSR sort gate)
1,QVQLVESGGGLVQAGGSLRLSCAASGRTFRYYALGWYRQAHGKERELVPRITRGATTNYADSVKGRFTISRDNAKNTVYLQMNSLKPEDTAVYYCAVTPLYGSDRRGWFSSDYWGQGTHVTVSS,high polyreactivity
2,QVQLVESGGGLVQAGGSLRLSCAASGRTFRYYAMGWYRPAPGKERELVAAINWSGGTTYYADSVKGRFTISRDNAKNTVYLQMNSLKPEDTAVYYCAAVYGYPSTSRYDYWGQGTQVTVSS,high polyreactivity
3,QVQLVESGGGLVQAGGSLRLSCAASGRTFRYYAMGWYRQAPGKERELFAAITSTGSTNYADSVKGRFTISRDNAKNTVYLQMNSLKPEDTAVYYCAARVNGKRRRYDYWGQGTQVTVSS,high polyreactivity
4,QVQLVESGGGLVQAGGSLRLSCAASGRTFRYYAMGWYRQAPGKERELVAAINRGGSTYYADSVKGRFTISRDNAKNTVYLQMNSLKPEDTAVYYCNVDKYRIVGFHSPYDYWGQGTQVTVSS,high polyreactivity
5,QVQLVESGGGLVQAGGSLRLSCAASGRTFRYYAMGWYRQAPGKERELVAAITSGGSTNYADSVKGRFTISRDNAKNTVYLQMNSLKPEDTAVYYCAAYWRSRNRFFWGQGTQVTVSS,high polyreactivity
6,QVQLVESGGGLVQAGGSLRLSCAASGRTFRYYAMGWYRQAPGKERELVADISWSGGRTTYADSVKGRFTISRDNAKNTVYLQMNSLKPEDTAVYYCAKVLYYPSHVSWGQGTQVTVSS,high polyreactivity
7,QVQLVESGGGLVQAGGSLRLSCAASGRTFRYYAMVWYRQAPGKEREWVASISSSGARTYYADSVKGRFTISRDNAKNTVYLRMNSQKPEDSAVYYCAASQRSGHPSYDYWGQGTQVTVSS,high polyreactivity
8,QVQLVESGGGLVQAGGSLRLSCAASGRTFRYYTKGWYRQAPGKERELVAAITYSGGSTYYADSVKGRFTISRDNAMNTVYLQMNSLKPVDTAVYYCAAKASGNYYYYWGQGTQVTVSS,high polyreactivity
9,QVQLVESGGGLVQAGGSLRLSCAASGRTFSAYAMGWYRQAPGKEREFVAAITFNTGSTYYADSVKGRFTISRDNAKNTVYLQMNSLKPEDTAVYYCAAALVGSVGYKGFDGFDYWGQGTQVTVSS,low polyreactivity
10,QVQLVESGGGLVQAGGSLRLSCAASGRTFSAYAMGWYRQAPGKERELVADIRRGGGTNYADSVKGRFTISRDNAKNTVYLQMNSLKPEDTAVYYCAAGYLRTYTRRYYWGQGTQVTVSS,high polyreactivity
11,QVQLVESGGGLVQAGGSLRLSCAASGRTFSAYTMGWYRQAPGKERELVAAITSGTSTYYADSVKGRFTISRDNAKNTVYLQMNSLKPEDTAVYYCNARDSGRWWHIGQSGEDYWGQGTQVTVSS,low polyreactivity
12,QVQLVESGGGLVQAGGSLRLSCAASGRTFSDYAMGWYRQAPGKERELVAAISNGGNTYADSVKGRFTISRDNAKNTVYLQMNSLKPEDTAVYYCNKESGDTARQSIMPSGRGDYWGQGTQVTVSS,low polyreactivity
13,QVQLVESGGGLVQAGGSLRLSCAASGRTFSGNAMGWYRQAPGKEREFVAVISSNGGSTYYADSVKGRFTISRDNAKNTVYLQMNSLKPEDTAVYYCNARYWRGWGGRVSKYGYWGQGTQVTVSS,high polyreactivity
14,QVQLVESGGGLVQAGGSLRLSCAASGRTFSGNAMGWYRQAPGKERELVAAITGRGGTTYYADSVKGRFTISRDNAKNTVYLQMNSLKPEDTAVYYCAADTKLSYQWFDYWGQGTQVTVSS,high polyreactivity
15,QVQLVESGGGLVQAGGSLRLSCAASGRTFSGNTMGWYRQAPGKERELVAAITGRGGSTYYADSVKGRFTISRDNAKNTVYLQMNSLKPEDTAVYYCAALRYTFAGRFDYWGQGTQVTVSS,high polyreactivity
16,QVQLVESGGGLVQAGGSLRLSCAASGRTFSGYAMGWYRQAPGKERELVAAIDRGDGTNYADSVKGRYTISRDNAKNTVYLQMNSQIPEDTAVYYCAGDYSDGSTSLTYTGFVYWGQGTQVTVSS,low polyreactivity
17,QVQLVESGGGLVQAGGSLRLSCAASGRTFSGYAMGWYRQAPGKERELVAAISWRGGRTYYADSVKGRFTISRDNAKNTVYLQMNSLKPEDTAVYYCATTVGDAGRRYYYWGQGTQVTVSS,high polyreactivity
18,QVQLVESGGGLVQAGGSLRLSCAASGRTFSIYAMGWYRQAPGKERELVAAISRGVTTYADSVKGRFTISRDNAKNTVYLQMNSLKPEDTAVYYCNARTVVYVRGGYWGQGTQVTVSS,low polyreactivity
19,QVQLVESGGGLVQAGGSLRLSCAASGRTFSKYAMGWYRQAPGKERELVAAIRWSGGSTYYADSVKGRFTISRDNAKNTVYLQMNSLKPEDTAVYYCAKRSRGLKFDYWGQGTQVTVSS,high polyreactivity
20,QVQLVESGGGLVQAGGSLRLSCAASGRTFSKYTMGWYRQEPGKESELVAVISRSGTRTYYADSVKGRFTISRDNANNTVYLQMNSMKPEDTAVYYCAAKDERRSFGMGYWGQGTQVTVTS,high polyreactivity
21,QVQLVESGGGLVQAGGSLRLSCAASGRTFSLNAMGWYRQAPGKERELVAAINRGGTTYYADSVKGRFTISRDNAKNTVYVQMNSLKPEDTAVYYCAARYISSYDWGQGTQVTVSS,high polyreactivity
22,QVQLVESGGGLVQAGGSLRLSCAASGRTFSLYTMGWYRQAPWKERELVASITSSGSTSYADSVKGRFTISRDNAKNTVYLQMNSLKPEDTAVYYCNAAVSYPKYPYVSPGVPSYDYWGQGTQVTVSS,low polyreactivity

row,Sequence,polyreactivity (PSR sort gate)
1,QVQLVESGGGLVQAGGSLRLSCAASGRTFSNNAMGWYRQAPGKERELVADITYSSDSTYYADSVKGRFTISRDNAKNTVYLQMNCLKPEDTAVYYCAADVVVGGSGSEYYYWGQGTQVTVSS,low polyreactivity
2,QVQLVESGGGLVQAGGSLRLSCAASGRTFSQNAMGWYRQAPGKERELVAAIRRGGSTNYADSVKGRFTISRDNEKNTVYLQMHSLKPEDTAVYYCAADLRRNGWGFDYWGQGTQVTVSS,high polyreactivity
3,QVQLVESGGGLVQAGGSLRLSCAASGRTFSRNAMGWYRPAPGKERQLVAAIRGSGTGTYYADSVKGRFTISRDNAKNTVYLQMNSLKPEDTPVYYSNADFISTRPPKATDEDYWGQGTQVTVSS,high polyreactivity
4,QVQLVESGGGLVQAGGSLRLSCAASGRTFSRNAMGWYRQAPGKERELVATITSDGSTNYADSVKGRFTISRDNAKITVYLQMNSLKPEDTAVYYCAAGEQSSIIGAHDYWGQGTQVTVSS,low polyreactivity
5,QVQLVESGGGLVQAGGSLRLSCAASGRTFSRYAMGWYRQAPGKERELVASITSRGGSTYYADSVKGRFTISRDNAKNTVYLQMNSLKPEDTAVYYCNVKPTYSTRYWEDYWGQGTQVTVSS,high polyreactivity
6,QVQLVESGGGLVQAGGSLRLSCAASGRTFSRYAMGWYRQAPGKERELVATINTRAGITNYPDSVKGRFTISRDNAKNTVYLQMNSLKPEDTAVYYCNRGRPGGPSWYHYVYWGQGTQVTVSS,high polyreactivity
7,QVQLVESGGGLVQAGGSLRLSCAASGRTFSRYTMGWYRQAPGKEREFVAAIDRGGGTTYYADSVKGRFTISRDNAKNTVYLQMNSLKPEDTAVYYCAAERNYWSTQYYYWGQGTQVTVSS,high polyreactivity
8,QVQLVESGGGLVQAGGSLRLSCAASGRTFSRYVMGWYRQAPGKERELVATISDVGNTYYADSVKGRFTISRDNAKNTVYLQMNSLKPEDTAVYYCNRVYFTSRQGQMYYWGQGTQVTVSS,high polyreactivity
9,QVQLVESGGGLVQAGGSLRLSCAASGRTFSSNAMGWYRHAPGKERELVAAISFRGGRTFYADSVKGRFTISRDNAKNTGFLQMNSLKPEDSAVYYCNAVPETRSYDYWGQGTQVTVSS,high polyreactivity
10,QVQLVESGGGLVQAGGSLRLSCAASGRTFSSNAMGWYRQAPGKEREFVAVISSGGSTYYADSVKGRFTISRDNAKNTVYLQMNSLKPEDTAVYYCAAAVGPSGYYYESDYWGQGTQVTVSS,high polyreactivity
11,QVQLVESGGGLVQAGGSLRLSCAASGRTFSSNAMGWYRQAPGKERELVAAITYTGTSTYYADSVKGRFTISRDYAKNTVYLQMNSLKPEDTAVYYCAALYVQGTHTYGYWGQGTQVTVSS,high polyreactivity
12,QVQLVESGGGLVQAGGSLRLSCAASGRTFSSNTMGWYRQAPGKERELVAAIDWSGGRTYYADSVKGRFTISRDNAKNTVYLQLNSLKPEDTEVYYCARSRSYWGIVYGRYDYWGQGTQVTVSS,high polyreactivity
13,QVQLVESGGGLVQAGGSLRLSCAASGRTFSTYAMGWYRQAPGKERELVAGISRGGGSTYYADSVKGRFTISRDNAKNTVYLQMNSLKPEDTAVYYCAAKRPQYYVQYGYWGQGTQVTVSS,high polyreactivity
14,QVQLVESGGGLVQAGGSLRLSCAASGRTFSVNAMGWSRQAPGKERELVAAITYSGGGTYYADSVKGRFTISRDNAKNPVYLQMNSLKPEDTAVYYCAAPVYTWYHRYDYWGQGTQVTVSS,high polyreactivity
15,QVQLVESGGGLVQAGGSLRLSCAASGRTFSVYAMGWYRQAPGKERELVAAINRGGSTNYADSVKGRFTISRDNAKNTVYLQMNSLKPEDTAVYYCAATYYWGRKAGFDYWGQGTQVTVSS,low polyreactivity
16,QVQLVESGGGLVQAGGSLRLSCAASGRTFSVYAMGWYRQAPGKERELVATISWGGGITYYADSVKGRFTISRDNAKNTVYLQMNSLKPEDTAVYYCAAKRSLYPYYYWGQGTQVTVSS,high polyreactivity
17,QVQLVESGGGLVQAGGSLRLSCAASGRTFSVYTMGWYRQAPGKERELVASINWSGGRTYYADSVKGRFTISRDNAKYSVYFQMISLKPEDTAVYYCAATGWRTLFDYWGQGTQVTVSS,high polyreactivity
18,QVQLVESGGGLVQAGGSLRLSCAASGRTFSVYTMGWYRQAPGKERELVASISRSGGRTYYADSVKGRFTISRDNAKNTVYLQMNSLKPADTAVYYCAARWYSASALKYYYWGQGTQVTVSS,high polyreactivity
19,QVQLVESGGGLVQAGGSLRLSCAASGRTFSWNTMGWYRQAPGKERELVAAITRVGTTYYADSVKGRFTISRDNAKNTVYLQMNSLKPEDTGVYYCNARKVRYPYRWYDYWGQGTQVTVSS,high polyreactivity
20,QVQLVESGGGLVQAGGSLRLSCAASGRTFSWYAMGWYRQAPGKEREFVATISASGGSTYYADSVKGRFTISRDNAKNTVYLQMNSLKPEDTAVYYCAADRSIRFFSPANYDYWGQGTQVTVSS,high polyreactivity
21,QVQLVESGGGLVQAGGSLRLSCAASGRTFSWYAMGWYRQAPGKERELVAAITWSGGSTYYADSVKGRFTISRDNAKNTVYLQMNSLKPEDTAVYYCNALRYSNRRYYSTGPHDYWGQGTQVTVSS,high polyreactivity

# Reference: the nanobody polyreactivity screen of Harvey et al. (2022)
